# Measurements published in the supplement of paper PMC9112550, “Optimization of the antimicrobial peptide Bac7 by deep mutational scanning” (BMC Biology, 2022).
# System: Escherichia coli TOP10
# Assay: shrunken log2 fold change of peptide-encoding DNA abundance (4.5 h post-induction vs induction); higher = less antimicrobial activity (less host growth inhibition)
# Settings: time post-induction: 4.5 h; library: site-saturation at positions 5, 18, 19, 20
# 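Note: peptides expressed intracellularly from a pBAD plasmid library in pooled LB shake-flask culture, induced with 0.3% L-arabinose, DNA abundance read by NGS, three biological replicates, DESeq2 with apeglm shrinkage.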
row,Sequence,shrunken log2 fold change
1,RRIRRRPPRLPRPRPRPTSGPRP,0.252
2,RRIRRRPPRLPRPRPRPTTCPRP,0.379
3,RRIRRRPPRLPRPRPRPTTNPRP,0.338
4,RRIRRRPPRLPRPRPRPTTSPRP,0.591
5,RRIRRRPPRLPRPRPRPTTWPRP,0.28
6,RRIRRRPPRLPRPRPRPTVCPRP,0.227
7,RRIRRRPPRLPRPRPRPTWNPRP,0.951
8,RRIRRRPPRLPRPRPRPVAHPRP,0.605
9,RRIRRRPPRLPRPRPRPVAKPRP,0.386
10,RRIRRRPPRLPRPRPRPVAWPRP,0.341
11,RRIRRRPPRLPRPRPRPVDVPRP,1.09
12,RRIRRRPPRLPRPRPRPVECPRP,-0.0238
13,RRIRRRPPRLPRPRPRPVFEPRP,0.192
14,RRIRRRPPRLPRPRPRPVGTPRP,0.018
15,RRIRRRPPRLPRPRPRPVIQPRP,0.177
16,RRIRRRPPRLPRPRPRPVKEPRP,-0.128
17,RRIRRRPPRLPRPRPRPVKYPRP,-0.167
18,RRIRRRPPRLPRPRPRPVMNPRP,0.0331
19,RRIRRRPPRLPRPRPRPVNIPRP,-0.142
20,RRIRRRPPRLPRPRPRPVPCPRP,0.0337
21,RRIRRRPPRLPRPRPRPVPFPRP,0.0998
22,RRIRRRPPRLPRPRPRPVPRPRP,0.518
23,RRIRRRPPRLPRPRPRPVQHPRP,-0.0478
24,RRIRRRPPRLPRPRPRPVVIPRP,0.0625
25,RRIRRRPPRLPRPRPRPVVPPRP,0.47

row,Sequence,shrunken log2 fold change
1,RRIRRRPPRLPRPRPRPVVRPRP,0.274
2,RRIRRRPPRLPRPRPRPVVTPRP,0.911
3,RRIRRRPPRLPRPRPRPVWQPRP,0.395
4,RRIRRRPPRLPRPRPRPVYCPRP,-0.0322
5,RRIRRRPPRLPRPRPRPWAGPRP,0.0855
6,RRIRRRPPRLPRPRPRPWAYPRP,-0.0717
7,RRIRRRPPRLPRPRPRPWCDPRP,0.0743
8,RRIRRRPPRLPRPRPRPWDSPRP,0.0548
9,RRIRRRPPRLPRPRPRPWDYPRP,0.0184
10,RRIRRRPPRLPRPRPRPWGMPRP,0.137
11,RRIRRRPPRLPRPRPRPWHEPRP,0.041
12,RRIRRRPPRLPRPRPRPWHSPRP,-0.254
13,RRIRRRPPRLPRPRPRPWIKPRP,0.0892
14,RRIRRRPPRLPRPRPRPWKNPRP,0.206
15,RRIRRRPPRLPRPRPRPWKVPRP,0.00548
16,RRIRRRPPRLPRPRPRPWKYPRP,-0.478
17,RRIRRRPPRLPRPRPRPWLKPRP,0.127
18,RRIRRRPPRLPRPRPRPWMFPRP,0.0935
19,RRIRRRPPRLPRPRPRPWMIPRP,-0.26
20,RRIRRRPPRLPRPRPRPWMKPRP,-0.196
21,RRIRRRPPRLPRPRPRPWMPPRP,-0.217
22,RRIRRRPPRLPRPRPRPWMTPRP,0.0417
23,RRIRRRPPRLPRPRPRPWNAPRP,-0.0963
24,RRIRRRPPRLPRPRPRPWNSPRP,0.0625
25,RRIRRRPPRLPRPRPRPWPPPRP,0.514

row,Sequence,shrunken log2 fold change
1,RRIRRRPPRLPRPRPRPWPWPRP,0.0938
2,RRIRRRPPRLPRPRPRPWQMPRP,0.0303
3,RRIRRRPPRLPRPRPRPWRDPRP,-0.0485
4,RRIRRRPPRLPRPRPRPWREPRP,-0.0799
5,RRIRRRPPRLPRPRPRPWRLPRP,0.289
6,RRIRRRPPRLPRPRPRPWRMPRP,0.00176
7,RRIRRRPPRLPRPRPRPWSDPRP,-0.107
8,RRIRRRPPRLPRPRPRPWTVPRP,-0.00497
9,RRIRRRPPRLPRPRPRPWVKPRP,0.0557
10,RRIRRRPPRLPRPRPRPWVTPRP,-0.0822
11,RRIRRRPPRLPRPRPRPWYVPRP,0.0457
12,RRIRRRPPRLPRPRPRPYAHPRP,0.082
13,RRIRRRPPRLPRPRPRPYATPRP,0.418
14,RRIRRRPPRLPRPRPRPYCCPRP,-0.565
15,RRIRRRPPRLPRPRPRPYCGPRP,-0.379
16,RRIRRRPPRLPRPRPRPYCTPRP,-0.24
17,RRIRRRPPRLPRPRPRPYFCPRP,-0.285
18,RRIRRRPPRLPRPRPRPYGKPRP,-0.813
19,RRIRRRPPRLPRPRPRPYGQPRP,0.501
20,RRIRRRPPRLPRPRPRPYHAPRP,-0.0669
21,RRIRRRPPRLPRPRPRPYHDPRP,-0.266
22,RRIRRRPPRLPRPRPRPYHMPRP,-0.254
23,RRIRRRPPRLPRPRPRPYHSPRP,-0.017
24,RRIRRRPPRLPRPRPRPYIRPRP,-0.715
25,RRIRRRPPRLPRPRPRPYKCPRP,-0.639

row,Sequence,shrunken log2 fold change
1,RRIRRRPPRLPRPRPRPYKYPRP,-0.415
2,RRIRRRPPRLPRPRPRPYLFPRP,-0.305
3,RRIRRRPPRLPRPRPRPYMAPRP,-0.69
4,RRIRRRPPRLPRPRPRPYMCPRP,0.154
5,RRIRRRPPRLPRPRPRPYPLPRP,0.015
6,RRIRRRPPRLPRPRPRPYPYPRP,-0.0951
7,RRIRRRPPRLPRPRPRPYQVPRP,-0.0648
8,RRIRRRPPRLPRPRPRPYSNPRP,-0.414
9,RRIRRRPPRLPRPRPRPYTYPRP,0.0668
10,RRIRRRPPRLPRPRPRPYVLPRP,0.00941
11,RRIRRRPPRLPRPRPRPYVRPRP,-0.867
12,RRIRRRPPRLPRPRPRPYVWPRP,-0.216
13,RRIRRRPPRLPRPRPRPYWNPRP,-0.368
14,RRIRSRPPRLPRPRPRPAAFPRP,0.29
15,RRIRSRPPRLPRPRPRPADEPRP,0.246
16,RRIRSRPPRLPRPRPRPADSPRP,-0.176
17,RRIRSRPPRLPRPRPRPADWPRP,0.405
18,RRIRSRPPRLPRPRPRPAENPRP,0.151
19,RRIRSRPPRLPRPRPRPAERPRP,0.0522
20,RRIRSRPPRLPRPRPRPAGFPRP,0.262
21,RRIRSRPPRLPRPRPRPAHEPRP,-0.074
22,RRIRSRPPRLPRPRPRPAKAPRP,0.000841
23,RRIRSRPPRLPRPRPRPAKPPRP,-0.146
24,RRIRSRPPRLPRPRPRPAKQPRP,0.134
25,RRIRSRPPRLPRPRPRPALHPRP,0.16

row,Sequence,shrunken log2 fold change
1,RRIRSRPPRLPRPRPRPALSPRP,0.497
2,RRIRSRPPRLPRPRPRPAMQPRP,-0.173
3,RRIRSRPPRLPRPRPRPAMWPRP,0.0276
4,RRIRSRPPRLPRPRPRPANAPRP,0.438
5,RRIRSRPPRLPRPRPRPAPGPRP,0.54
6,RRIRSRPPRLPRPRPRPAQFPRP,-0.114
7,RRIRSRPPRLPRPRPRPAQGPRP,0.19
8,RRIRSRPPRLPRPRPRPARGPRP,0.574
9,RRIRSRPPRLPRPRPRPARMPRP,-0.0672
10,RRIRSRPPRLPRPRPRPASIPRP,7.54e-05
11,RRIRSRPPRLPRPRPRPATMPRP,0.00669
12,RRIRSRPPRLPRPRPRPAVVPRP,-0.0261
13,RRIRSRPPRLPRPRPRPAWGPRP,0.51
14,RRIRSRPPRLPRPRPRPAWPPRP,0.49
15,RRIRSRPPRLPRPRPRPCACPRP,-0.0721
16,RRIRSRPPRLPRPRPRPCCLPRP,-0.125
17,RRIRSRPPRLPRPRPRPCCQPRP,0.0545
18,RRIRSRPPRLPRPRPRPCEFPRP,-0.227
19,RRIRSRPPRLPRPRPRPCFEPRP,-0.0192
20,RRIRSRPPRLPRPRPRPCFFPRP,-0.248
21,RRIRSRPPRLPRPRPRPCFLPRP,-0.642
22,RRIRSRPPRLPRPRPRPCFPPRP,-0.747
23,RRIRSRPPRLPRPRPRPCGWPRP,0.148
24,RRIRSRPPRLPRPRPRPCIAPRP,-0.22
25,RRIRSRPPRLPRPRPRPCLYPRP,-0.198

row,Sequence,shrunken log2 fold change
1,RRIRSRPPRLPRPRPRPCMTPRP,-0.102
2,RRIRSRPPRLPRPRPRPCQIPRP,-0.231
3,RRIRSRPPRLPRPRPRPCQWPRP,-0.134
4,RRIRSRPPRLPRPRPRPCRCPRP,-0.358
5,RRIRSRPPRLPRPRPRPCRFPRP,-0.0924
6,RRIRSRPPRLPRPRPRPCRGPRP,-0.128
7,RRIRSRPPRLPRPRPRPCSQPRP,-0.214
8,RRIRSRPPRLPRPRPRPCTGPRP,-0.0404
9,RRIRSRPPRLPRPRPRPCVEPRP,0.0654
10,RRIRSRPPRLPRPRPRPCYAPRP,-0.478
11,RRIRSRPPRLPRPRPRPCYTPRP,-0.0751
12,RRIRSRPPRLPRPRPRPDALPRP,0.353
13,RRIRSRPPRLPRPRPRPDCGPRP,0.0769
14,RRIRSRPPRLPRPRPRPDCPPRP,0.0922
15,RRIRSRPPRLPRPRPRPDEKPRP,-0.0769
16,RRIRSRPPRLPRPRPRPDFEPRP,-0.0501
17,RRIRSRPPRLPRPRPRPDFIPRP,0.00191
18,RRIRSRPPRLPRPRPRPDIEPRP,0.0454
19,RRIRSRPPRLPRPRPRPDKAPRP,-0.111
20,RRIRSRPPRLPRPRPRPDKKPRP,-0.158
21,RRIRSRPPRLPRPRPRPDKNPRP,-0.105
22,RRIRSRPPRLPRPRPRPDLFPRP,0.256
23,RRIRSRPPRLPRPRPRPDLTPRP,0.0442
24,RRIRSRPPRLPRPRPRPDLWPRP,0.349
25,RRIRSRPPRLPRPRPRPDMEPRP,0.0134
